Source: US20110059889A1 (SYNTONIX PHARMACEUTICALS, published 2011)
Read-outs that look alike come from different tables or passages of the source. One block for each binder: values may come before it. Numbered stars: 1 amine (or outer) side, 2 acyl side, 3 side chain; on linkers, the order of the positions; unused ones are H or OH. Bridge positions count the residues as written; N and C are the ends. Square brackets hold non-standard residues; d marks the D form. Ends that are not written are not given here. Tyr(2-NO2) = 2-nitro-Tyr, O=C([C@H](Cc1ccc(O[*:3])cc1[N+](=O)[O-])N[*:1])[*:2]; Phe(4-NO2) = N[C@@H](Cc1ccc([N+](=O)[O-])cc1)C(=O)O; Phe(F5) = N[C@@H](Cc1c(F)c(F)c(F)c(F)c1F)C(=O)O; Phe(4-NH2) = Nc1ccc(C[C@H](N)C(=O)O)cc1; Phe(4-F) = N[C@@H](Cc1ccc(F)cc1)C(=O)O; Phe(2-Me) = Cc1ccccc1C[C@H](N)C(=O)O; Pen = CC(C)(S)[C@H](N)C(=O)O; Sar = CNCC(=O)O

What was measured:
[1] = target: T1, soluble human FcRn (shFcRn) (human, UniProt P55899 24-297; P61769 21-119); test: IgG competition ELISA
T1 construct: Biotinylated for the ELISA, amine-coupled to a CM5 chip for SPR; also called biotinylated shFcRn

[2] = target: T1, soluble human FcRn (shFcRn); test: SPR pH 6; 4-amino-Phe in place of Tyr; Pen backbone
Procedure: (§1) The following steps were performed to cross-link soluble human or cynomolgus FcRn to the dextran surface of a CM5 sensor chip (Biacore AB, Uppsala, Sweden) by an amine coupling reaction involving 1-ethyl-(3-dimethylaminopropyl)-carbodiimide hydrochloride (EDC) (Biacore AB, Uppsala, Sweden) and N-hydroxysuccinimide (NHS) (Biacore AB, Uppsala, Sweden) as recommended by Biacore (BIAapplications Handbook, version AB, section 4.2, Biacore AB, Uppsala, Sweden). […] Residual sites on the FcRn flow cell were blocked with 1 M ethanolamine hydrochloride pH 8.5 (Biacore AB, Uppsala, Sweden). A control flow cell was blocked with ethanolamine for reference subtraction. For analysis of the monomeric peptides, FcRn was coated to a final density of 4000-5000 response units (RU). For analysis of the peptide dimers, FcRn was coated to a density of 2000-2500 RU. All SPR measurements were performed using a BIACORE 3000 Instrument (Biacore AB Uppsala, Sweden). For measurements done at either pH 6 or pH 7.4, experiments were performed in 50 mM phosphate, 100 mM sodium chloride, 0.01% surfactant P20 (Biacore AB, Uppsala, Sweden).
(§2) Ten, 2-fold dilutions of the peptide were injected over the FcRn-CM5 chip at a rate of 20 μl/min for 2 min. The peptide was dissociated from the chip for 2.5 minutes with buffer. […] Sensorgrams were generated and analyzed using BiaEval software version 3.1 (Biacore AB, Uppsala, Sweden). […]

[3] = target: T1, soluble human FcRn (shFcRn); test: SPR pH 7.4
Procedure: as §1, §2

[4] = target: T1, soluble human FcRn (shFcRn); test: SPR pH 6; pentafluoroPhe in place of Tyr; Pen backbone
Procedure: as §1, §2

[5] = target: T1, soluble human FcRn (shFcRn); test: SPR pH 6; Peptide No. 75: Pen, lower-case a-G (QRF-Pen-TGHF-a-G-LYPCNGP)
Procedure: as §1, §2

[6] = target: T1, soluble human FcRn (shFcRn); test: SPR pH 6; 4-nitro-Phe in place of Tyr; Pen backbone
Procedure: as §1, §2

[7] = target: T1, soluble human FcRn (shFcRn); test: SPR pH 6
Procedure: as §1
(§3) Ten, 2-fold dilutions of the peptide were injected over the FcRn-CM5 chip at a rate of 20 μl/min for 2 min. The peptide was dissociated from the chip for 2.5 minutes with buffer. Any remaining peptide was removed from the chip with a 30 second injection of HBS-P buffer (Biacore AB, Uppsala, Sweden) at a rate of 30 μl/min. Sensorgrams were generated and analyzed using BiaEval software version 3.1 (Biacore AB, Uppsala, Sweden). The equilibrium RU observed for each injection was plotted against concentration. The equilibrium KD values were derived by analysis of the plots using the steady state affinity model included in the BiaEval software.

[8] = target: T1, soluble human FcRn (shFcRn); test: SPR pH 7.4; remark: listed apart in the source
Procedure: as §1, §2

[9] = target: T1, soluble human FcRn (shFcRn); test: SPR pH 6; Peptide No. 189: Pen, lower-case a, Sar (QRF-Pen-TGHF-a-Sar-LYPCNGP)
Procedure: as §1, §2

[10] = target: T1, soluble human FcRn (shFcRn); test: SPR pH 6; remark: listed apart in the source
Procedure: as §1, §3

[11] = target: T1, soluble human FcRn (shFcRn); test: SPR pH 7.4; remark: listed apart in the source
Procedure: as §1, §2

[12] = target: T1, soluble human FcRn (shFcRn); test: IgG competition ELISA; remark: listed apart in the source
Procedure: The wells were coated with 100 μl/well of 1 μg/ml biotinylated-shFcRn in Buffer A. The plate was sealed and incubated at 37° C. for 2 hours. Afterwards, the plate was washed with 200 μl/well of Buffer B (Buffer B: 100 mM MES pH 6, 150 mM NaCl, 0.5% BSA IgG-free (Jackson ImmunoResearch, West Grove, Pa.), 0.05% Tween-20). […] To allow for mixing, the plate was rocked for 2 minutes, sealed and incubated at 37° C. for 2 hours. […] The plate was covered, incubated for 30 minutes at room temperature and washed 4 times with 200 μl/well of ice-cold buffer B. SureBlue TMB substrate solution (100 μl/well, KPL, Gaithersburg, Md.) was added and the plate was allowed to incubate at room temperature until color developed, which took 5 to 10 minutes. Once color developed, 100 μl/well of TMB stop solution (KPL, Gaithersburg, Md.) was added and the absorbance was measured at 450 nm. The data was plotted as absorbance vs. peptide concentration to derive the inhibitory concentration 50% (IC₅₀) values.

[13] = target: T1, soluble human FcRn (shFcRn); test: SPR pH 6; Peptide No. 87: Pen, 2-nitro-Tyr for Tyr (QRF-Pen-TGHFGGL-(2-nitro-Tyr)-PCNGP)
Procedure: as §1, §2

[14] = target: T1, soluble human FcRn (shFcRn); test: IgG competition ELISA; remark: listed apart in the source
[15] = target: T1, soluble human FcRn (shFcRn); test: SPR pH 6; Peptide No. 88: Pen, 2-MePhe for Phe (QRF-Pen-TGH-(2-MePhe)-…)
Procedure: as §1, §2

[16] = target: T1, soluble human FcRn (shFcRn); test: SPR pH 6; Peptide No. 94: Pen, PheNHAc for Phe (QRF-Pen-TGH-(PheNHAc)-…)
Procedure: as §1, §2

IC50 [1]: 110000 nM
Kd [2]: 34000 nM
B1: Peptide No. 63 (peptide)
peptide: QRF[Pen]TGHFGGL[Phe(4-NH2)]PCNGP-NH2
modifications: disulfide 4-14; N-terminus assumed
SMILES: CC(C)C[C@@H]1NC(=O)CNC(=O)CNC(=O)[C@H](Cc2ccccc2)NC(=O)[C@H](Cc2c[nH]cn2)NC(=O)CNC(=O)[C@H]([C@@H](C)O)NC(=O)[C@@H](NC(=O)[C@H](Cc2ccccc2)NC(=O)[C@H](CCCNC(=N)N)NC(=O)[C@@H](N)CCC(N)=O)C(C)(C)SSC[C@@H](C(=O)N[C@@H](CC(N)=O)C(=O)NCC(=O)N2CCC[C@H]2C(N)=O)NC(=O)[C@@H]2CCCN2C(=O)[C@H](Cc2ccc(N)cc2)NC1=O

Kd [3]: 24000 nM
IC50 [1]: 26000 nM
B2: Peptide No. 140 (peptide)
peptide: QRF[Pen]TGHFGGL[Phe(4-F)]PCNGP-NH2
modifications: disulfide 4-14; N-terminus assumed
SMILES: CC(C)C[C@@H]1NC(=O)CNC(=O)CNC(=O)[C@H](Cc2ccccc2)NC(=O)[C@H](Cc2c[nH]cn2)NC(=O)CNC(=O)[C@H]([C@@H](C)O)NC(=O)[C@@H](NC(=O)[C@H](Cc2ccccc2)NC(=O)[C@H](CCCNC(=N)N)NC(=O)[C@@H](N)CCC(N)=O)C(C)(C)SSC[C@@H](C(=O)N[C@@H](CC(N)=O)C(=O)NCC(=O)N2CCC[C@H]2C(N)=O)NC(=O)[C@@H]2CCCN2C(=O)[C@H](Cc2ccc(F)cc2)NC1=O

Kd [4]: 72000 nM
B3: Peptide No. 65 (peptide)
peptide: QRF[Pen]TGHFGGL[Phe(F5)]PCNGP-NH2
modifications: disulfide 4-14; N-terminus assumed
SMILES: CC(C)C[C@@H]1NC(=O)CNC(=O)CNC(=O)[C@H](Cc2ccccc2)NC(=O)[C@H](Cc2c[nH]cn2)NC(=O)CNC(=O)[C@H]([C@@H](C)O)NC(=O)[C@@H](NC(=O)[C@H](Cc2ccccc2)NC(=O)[C@H](CCCNC(=N)N)NC(=O)[C@@H](N)CCC(N)=O)C(C)(C)SSC[C@@H](C(=O)N[C@@H](CC(N)=O)C(=O)NCC(=O)N2CCC[C@H]2C(N)=O)NC(=O)[C@@H]2CCCN2C(=O)[C@H](Cc2c(F)c(F)c(F)c(F)c2F)NC1=O

Kd [5]: 490 nM
B4: Peptide No. 75 (peptide)
peptide: QRF[Pen]TGHF[dA]GLYPCNGP-NH2
modifications: disulfide 4-14; N-terminus assumed
SMILES: CC(C)C[C@@H]1NC(=O)CNC(=O)[C@@H](C)NC(=O)[C@H](Cc2ccccc2)NC(=O)[C@H](Cc2c[nH]cn2)NC(=O)CNC(=O)[C@H]([C@@H](C)O)NC(=O)[C@@H](NC(=O)[C@H](Cc2ccccc2)NC(=O)[C@H](CCCNC(=N)N)NC(=O)[C@@H](N)CCC(N)=O)C(C)(C)SSC[C@@H](C(=O)N[C@@H](CC(N)=O)C(=O)NCC(=O)N2CCC[C@H]2C(N)=O)NC(=O)[C@@H]2CCCN2C(=O)[C@H](Cc2ccc(O)cc2)NC1=O

Kd [6]: 180000 nM
B5: Peptide No. 68 (peptide)
peptide: QRF[Pen]TGHFGGL[Phe(4-NO2)]PCNGP-NH2
modifications: disulfide 4-14; N-terminus assumed
SMILES: CC(C)C[C@@H]1NC(=O)CNC(=O)CNC(=O)[C@H](Cc2ccccc2)NC(=O)[C@H](Cc2c[nH]cn2)NC(=O)CNC(=O)[C@H]([C@@H](C)O)NC(=O)[C@@H](NC(=O)[C@H](Cc2ccccc2)NC(=O)[C@H](CCCNC(=N)N)NC(=O)[C@@H](N)CCC(N)=O)C(C)(C)SSC[C@@H](C(=O)N[C@@H](CC(N)=O)C(=O)NCC(=O)N2CCC[C@H]2C(N)=O)NC(=O)[C@@H]2CCCN2C(=O)[C@H](Cc2ccc([N+](=O)[O-])cc2)NC1=O

Kd [7]: 380 nM
Kd [8]: 2500 nM
B6: Peptide No. 84 (peptide)
peptide: QRF[Pen]TGHFGGHYPCNGP-NH2
modifications: disulfide 4-14; N-terminus assumed
SMILES: C[C@@H](O)[C@@H]1NC(=O)[C@@H](NC(=O)[C@H](Cc2ccccc2)NC(=O)[C@H](CCCNC(=N)N)NC(=O)[C@@H](N)CCC(N)=O)C(C)(C)SSC[C@@H](C(=O)N[C@@H](CC(N)=O)C(=O)NCC(=O)N2CCC[C@H]2C(N)=O)NC(=O)[C@@H]2CCCN2C(=O)[C@H](Cc2ccc(O)cc2)NC(=O)[C@H](Cc2c[nH]cn2)NC(=O)CNC(=O)CNC(=O)[C@H](Cc2ccccc2)NC(=O)[C@H](Cc2c[nH]cn2)NC(=O)CNC1=O

Kd [9]: 190 nM
B7: Peptide No. 189 (peptide)
peptide: QRF[Pen]TGHF[dA][Sar]LYPCNGP-NH2
modifications: disulfide 4-14; N-terminus assumed
SMILES: CC(C)C[C@@H]1NC(=O)CN(C)C(=O)[C@@H](C)NC(=O)[C@H](Cc2ccccc2)NC(=O)[C@H](Cc2c[nH]cn2)NC(=O)CNC(=O)[C@H]([C@@H](C)O)NC(=O)[C@@H](NC(=O)[C@H](Cc2ccccc2)NC(=O)[C@H](CCCNC(=N)N)NC(=O)[C@@H](N)CCC(N)=O)C(C)(C)SSC[C@@H](C(=O)N[C@@H](CC(N)=O)C(=O)NCC(=O)N2CCC[C@H]2C(N)=O)NC(=O)[C@@H]2CCCN2C(=O)[C@H](Cc2ccc(O)cc2)NC1=O

Kd [10]: 150 nM
Kd [11]: 960 nM
IC50 [12]: 3000 nM
B8: Peptide No. 296 (peptide)
peptide: QRF[Pen]HGHFGGLYPCNGP-NH2
modifications: disulfide 4-14; N-terminus assumed
SMILES: CC(C)C[C@@H]1NC(=O)CNC(=O)CNC(=O)[C@H](Cc2ccccc2)NC(=O)[C@H](Cc2c[nH]cn2)NC(=O)CNC(=O)[C@H](Cc2c[nH]cn2)NC(=O)[C@@H](NC(=O)[C@H](Cc2ccccc2)NC(=O)[C@H](CCCNC(=N)N)NC(=O)[C@@H](N)CCC(N)=O)C(C)(C)SSC[C@@H](C(=O)N[C@@H](CC(N)=O)C(=O)NCC(=O)N2CCC[C@H]2C(N)=O)NC(=O)[C@@H]2CCCN2C(=O)[C@H](Cc2ccc(O)cc2)NC1=O

Kd [13]: 290000 nM
B9: Peptide No. 87 (peptide)
peptide: QRF[Pen]TGHFGGL[Tyr(2-NO2)]PCNGP-NH2
modifications: disulfide 4-14; N-terminus assumed
SMILES: CC(C)C[C@@H]1NC(=O)CNC(=O)CNC(=O)[C@H](Cc2ccccc2)NC(=O)[C@H](Cc2c[nH]cn2)NC(=O)CNC(=O)[C@H]([C@@H](C)O)NC(=O)[C@@H](NC(=O)[C@H](Cc2ccccc2)NC(=O)[C@H](CCCNC(=N)N)NC(=O)[C@@H](N)CCC(N)=O)C(C)(C)SSC[C@@H](C(=O)N[C@@H](CC(N)=O)C(=O)NCC(=O)N2CCC[C@H]2C(N)=O)NC(=O)[C@@H]2CCCN2C(=O)[C@H](Cc2ccc(O)cc2[N+](=O)[O-])NC1=O

IC50 [14]: 1000 nM
Kd [15]: 200 nM
B10: Peptide No. 88 (peptide)
peptide: QRF[Pen]TGH[Phe(2-Me)]GGLYPCNGP-NH2
modifications: disulfide 4-14; N-terminus assumed
SMILES: Cc1ccccc1C[C@@H]1NC(=O)[C@H](Cc2c[nH]cn2)NC(=O)CNC(=O)[C@H]([C@@H](C)O)NC(=O)[C@@H](NC(=O)[C@H](Cc2ccccc2)NC(=O)[C@H](CCCNC(=N)N)NC(=O)[C@@H](N)CCC(N)=O)C(C)(C)SSC[C@@H](C(=O)N[C@@H](CC(N)=O)C(=O)NCC(=O)N2CCC[C@H]2C(N)=O)NC(=O)[C@@H]2CCCN2C(=O)[C@H](Cc2ccc(O)cc2)NC(=O)[C@H](CC(C)C)NC(=O)CNC(=O)CNC1=O

Kd [16]: 270000 nM
Binder: QRF[Pen]TGH[Phe(4-NHAc)]GGLYPCNGP-NH2 (disulfide 4-14) [Peptide No. 94]
